The text below walks through data of the supplement of paper PMC11246515.

± gives the standard deviation of the averaged measurements.

A short description of this data set: total protein half-life in vivo (active degradation + dilution); higher = more stable protein.
The mark [1] stands for this setting: E. coli NCM3722 delta-clpP delta-lon delta-hslV, growth: N-lim chemostat, doubling time 6 h.
Where [2] appears, read: E. coli NCM3722 delta-clpP, growth: N-lim chemostat, doubling time 6 h.
Setting [3] is: E. coli NCM3722 delta-lon, growth: N-lim chemostat, doubling time 6 h.
Where [4] appears, read: wild type E. coli NCM3722, growth: P-lim chemostat, doubling time 6 h.
Setting [5] is: wild type E. coli NCM3722, growth: P-lim chemostat, doubling time 12 h.
Setting [6] is: E. coli NCM3722 delta-hslV, growth: N-lim chemostat, doubling time 6 h.
Where [7] appears, read: E. coli NCM3722 delta-smpB, growth: N-lim chemostat, doubling time 6 h.
[8] abbreviates: wild type E. coli NCM3722, growth: C-lim chemostat, doubling time 6 h.
Where [9] appears, read: wild type E. coli NCM3722, growth: C-lim chemostat, doubling time 12 h.
[10] abbreviates: wild type E. coli NCM3722, growth: N-lim chemostat, doubling time 6 h.
[11] abbreviates: wild type E. coli NCM3722, growth: N-lim chemostat, doubling time 12 h.
[12] abbreviates: wild type E. coli NCM3722, growth: C-lim chemostat, doubling time 3 h.

Turning to “MKLGFIGLGIMGTPMAINLARAGHQLHVTTIGPVADELLSLGAVSVETARQVTEASDIIFIMVPDTPQVEEVLFGENGCTKASLKGKTIVDMSSISPIETKRFARQVNELGGDYLDAPVSGGEIGAREGTLSIMVGGDEAVFERVKPLFELLGKNITLVGGNGDGQTCKVANQIIVALNIEAVSEALLFASKAGADPVRVRQALMGGFASSRILEVHGERMIKRTFNPGFKIALHQKDLNLALQSAKALALNLPNTATCQELFNTCAANGGSQLDHSALVQALELMANHKLA”, the “total protein half-life in vivo” value runs as follows: under setting [1], 4.94 ± 0.21 h; under setting [2], 3.37 ± 1.2 h; under setting [3], 3.23 h; under setting [4], 2.4 ± 2 h; under setting [5], 2.16 h.
Turning to “MTATAQQLEYLKNSIKSIQDYPKPGILFRDVTSLLEDPKAYALSIDLLVERYKNAGITKVVGTEARGFLFGAPVALGLGVGFVPVRKPGKLPRETISETYDLEYGTDQLEIHVDAIKPGDKVLVVDDLLATGGTIEATVKLIRRLGGEVADAAFIINLFDLGGEQRLEKQGITSYSLVPFPGH”, the “total protein half-life in vivo” value by setting is: under setting [2], 4.03 ± 0.92 h; under setting [6], 4.32 ± 0.47 h; under setting [3], 4.33 ± 0.17 h; under setting [7], 3.58 ± 0.46 h; under setting [8], 4.57 ± 0.87 h; under setting [9], 8.09 ± 0.39 h. Moreover, the “total protein half-life in vivo” value reads like this: under setting [10], 5.06 ± 1 h; under setting [11], 6.92 ± 0.095 h; under setting [4], 5.1 ± 0.18 h; under setting [5], 10.9 ± 0.8 h.
In the case of “MFNSDNLRLDGKCAIITGAGAGIGKEIAITFATAGASVVVSDINADAANHVVDEIQQLGGQAFACRCDITSEQELSALADFAISKLGKVDILVNNAGGGGPKPFDMPMADFRRAYELNVFSFFHLSQLVAPEMEKNGGGVILTITSMAAENKNINMTSYASSKAAASHLVRNMAFDLGEKNIRVNGIAPGAILTDALKSVITPEIEQKMLQHTPIRRLGQPQDIANAALFLCSPAASWVSGQILTVSGGGVQELN [P0AET8]”, the “total protein half-life in vivo” value is, setting by setting: under setting [1], 4.91 ± 0.11 h; under setting [2], 4.39 ± 0.73 h; under setting [6], 4.72 ± 0.18 h; under setting [3], 5.48 ± 0.66 h; under setting [7], 4.27 ± 0.21 h; under setting [12], 3.53 ± 0.6 h. The “total protein half-life in vivo” value runs as follows: under setting [8], 5.51 ± 1.1 h; under setting [9], 10.2 ± 1.2 h; under setting [10], 4.57 ± 0.14 h; under setting [11], 7.309 ± 0.022 h; under setting [4], 5.64 ± 0.42 h; under setting [5], 11.8 ± 0.3 h.
As for “MTPHVMKRDGCKVPFKSERIKEAILRAAKAAEVDDADYCATVAAVVSEQMQGRNQVDINEIQTAVENQLMSGPYKQLARAYIEYRHDRDIEREKRGRLNQEIRGLVEQTNASLLNENANKDSKVIPTQRDLLAGIVAKHYARQHLLPRDVVQAHERGDIHYHDLDYSPFFPMFNCMLIDLKGMLTQGFKMGNAEIEPPKSISTATAVTAQIIAQVASHIYGGTTINRIDEVLAPFVTASYNKHRKTAEEWNIPDAEGYANSRTIKECYDAFQSLEYEVNTLHTANGQTPFVTFGFGLGTSWESRLIQESILRNRIAGLGKNRKTAVFPKLVFAIRDGLNHKKGDPNYDIKQLALECASKRMYPDILNYDQVVKVTGSFKTPMGCRSFLGVWENENGEQIHDGRNNLGVISLNLPRIALEAKGDEATFWKLLDERLVLARKALMTRIARLEGVKARVAPILYMEGACGVRLNADDDVSEIFKNGRASISLGYIGIHETINALFGGEHVYDNEQLRAKGIAIVERLRQAVDQWKEETGYGFSLYSTPSENLCDRFCRLDTAEFGVVPGVTDKGYYTNSFHLDVEKKVNPYDKIDFEAPYPPLANGGFICYGEYPNIQHNLKALEDVWDYSYQHVPYYGTNTPIDECYECGFTGEFECTSKGFTCPKCGNHDASRVSVTRRVCGYLGSPDARPFNAGKQEEVKRRVKHLGNGQIG”, the “total protein half-life in vivo” value runs as follows: under setting [1], 2.17 ± 0.33 h; under setting [2], 1.045 ± 0.0046 h; under setting [6], 0.844 ± 0.15 h; under setting [3], 1.02 ± 0.11 h; under setting [7], 0.762 ± 0.051 h; under setting [12], 2.63 ± 0.5 h. Further, the “total protein half-life in vivo” value runs as follows: under setting [8], 2 ± 0.24 h; under setting [9], 2.72 ± 0.57 h; under setting [10], 1.67 ± 0.91 h; under setting [11], 1.49 ± 0.42 h; under setting [4], 2.99 ± 0.31 h; under setting [5], 4.91 ± 0.075 h.
Consider “MRLFIAEKPSLARAIADVLPKPHRKGDGFIECGNGQVVTWCIGHLLEQAQPDAYDSRYARWNLADLPIVPEKWQLQPRPSVTKQLNVIKRFLHEASEIVHAGDPDREGQLLVDEVLDYLQLAPEKRQQVQRCLINDLNPQAVERAIDRLRSNSEFVPLCVSALARARADWLYGINMTRAYTILGRNAGYQGVLSVGRVQTPVLGLVVRRDEEIENFVAKDFFEVKAHIVTPADERFTAIWQPSEACEPYQDEEGRLLHRPLAEHVVNRISGQPAIVTSYNDKRESESAPLPFSLSALQIEAAKRFGLSAQNVLDICQKLYETHKLITYPRSDCRYLPEEHFAGRHAVMNAISVHAPDLLPQPVVDPDIRNRCWDDKKVDAHHAIIPTARSSAINLTENEAKVYNLIARQYLMQFCPDAVFRKCVIELDIAKGKFVAKARFLAEAGWRTLLGSKERDEENDGTPLPVVAKGDELLCEKGEVVERQTQPPRHFTDATLLSAMTGIARFVQDKDLKKILRATDGLGTEATRAGIIELLFKRGFLTKKGRYIHSTDAGKALFHSLPEMATRPDMTAHWESVLTQISEKQCRYQDFMQPLVGTLYQLIDQAKRTPVRQFRGIVAPGSGGSADKKKAAPRKRSAKKSPPADEVGSGAIA”, for which the “total protein half-life in vivo” value is 5.31 ± 0.35 h under setting [1]; 2.48 ± 0.14 h under setting [2]; 1.843 ± 0.0066 h under setting [6]; 4.39 ± 0.75 h under setting [3]; 1.97 ± 0.14 h under setting [7]; 1.65 ± 0.098 h under setting [12]. The “total protein half-life in vivo” value was determined as 3.12 ± 0.038 h under setting [8]; 3.27 ± 0.57 h under setting [9]; 2.32 ± 0.17 h under setting [10]; 3.255 ± 0.0094 h under setting [11]; 2.23 ± 0.41 h under setting [4]; 4.46 ± 1.1 h under setting [5].
